Tests used:
[1] = target: HLA-DQ2.5/33mer gliadin peptide on IHW9088 cells (human); assay: cell-based or functional assay
HLA-DQ7.5 on Ba/F3 cells = target: T1, HLA-DQ7.5 on Ba/F3 cells (human, UniProt P01909 24-216; P01920 33-230, limits assumed); assay: FACS, Ba/F3 cells; IC17=0%, DQN0139bb//IC17=100%;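 also: flow cytometry binding of anti-HLA-DQ antibodies at 5 µg/mL, incubated 30 min at room temperature with Ba/F3 lines presenting HLA-DQ/peptide complexes; antibody tested at 5 microgram/mL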
T1 construct: whole, on cells; also called Ba/F3-HLA-DQ7.5
Description: (§1) The binding of anti-HLA-DQ antibodies to Ba/F3-HLA-DQ2.5, Ba/F3-HLA-DQ2.2, Ba/F3-HLA-DQ7.5, Ba/F3-HLA-DQ8, Ba/F3-HLA-DQ5.1, Ba/F3-HLA-DQ6.3, Ba/F3-HLA-DQ7.3, Ba/F3-HLA-DR, Ba/F3-HLA-DP, Ba/F3-HLA-DQ2.5/CLIP, Ba/F3-HLA-DQ2.5/HBV, Ba/F3-HLA-DQ2.5/Salmonella, Ba/F3-HLA-DQ2.5/TPO, Ba/F3-HLA-DQ2.5/M. bovis, Ba/F3-HLA-DQ2.5/alpha 1 gliadin, Ba/F3-HLA-DQ2.5/alpha 2 gliadin, Ba/F3-HLA-DQ2.5/gamma 1 gliadin, Ba/F3-HLA-DQ2.5/gamma 2 gliadin, Ba/F3-HLA-DQ2.5/omega 1 gliadin, Ba/F3-HLA-DQ2.5/omega 2 gliadin, Ba/F3-HLA-DQ2.5/BC hordein, Ba/F3-HLA-DQ2.5/alpha 3 gliadin, Ba/F3-HLA-DQ2.5/alpha 1b gliadin, Ba/F3-HLA-DQ2.5/gamma 4b gliadin, Ba/F3-HLA-DQ2.5/avenin 1, Ba/F3-HLA-DQ2.5/avenin 2, Ba/F3-HLA-DQ2.5/avenin 3, Ba/F3-HLA-DQ2.5/hordein 1, Ba/F3-HLA-DQ2.5/hordein 2, Ba/F3-HLA-DQ2.5/secalin 1, Ba/F3-HLA-DQ2.5/secalin 2, Ba/F3-HLA-DQ2.5/14mer 1, Ba/F3-HLA-DQ2.5/33mer gliadin, Ba/F3-HLA-DQ2.5/26mer gliadin, was tested. 5 microgram/mL of each of the anti-HLA-DQ antibodies was incubated with each cell line for 30 minutes at room temperature and washed with FACS buffer (2% FBS, 2 mM EDTA in PBS).

HLA-DQ8 on Ba/F3 cells = target: T2, HLA-DQ8 on Ba/F3 cells (human, UniProt P01909 24-216; P01920 33-230, limits assumed); assay: FACS, Ba/F3 cells; IC17=0%, DQN0139bb//IC17=100%;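 also: flow cytometry binding of anti-HLA-DQ antibodies at 5 µg/mL, incubated 30 min at room temperature with Ba/F3 lines presenting HLA-DQ/peptide complexes; antibody tested at 5 microgram/mL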
T2 construct: whole, on cells; also called Ba/F3-HLA-DQ8
Description: as §1
T2 MHC II alpha: not shown
T2 MHC II beta: not shown

[2] = target: T3, HLA-DQ2.5/CLIP peptide complex on Ba/F3 cells (human); assay: FACS, Ba/F3 cells; IC17=0%, DQN0139bb//IC17=100%;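 also: flow cytometry binding of anti-HLA-DQ antibodies at 5 µg/mL, incubated 30 min at room temperature with Ba/F3 lines presenting HLA-DQ/peptide complexes; antibody tested at 5 microgram/mL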
T3 construct: whole, on cells; also called Ba/F3-HLA-DQ2.5/CLIP
Description: as §1

[3] = target: T4, HLA-DQ2.5/Thyroperoxidase peptide complex on Ba/F3 cells (human); assay: FACS, Ba/F3 cells; IC17=0%, DQN0139bb//IC17=100%;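 also: flow cytometry binding of anti-HLA-DQ antibodies at 5 µg/mL, incubated 30 min at room temperature with Ba/F3 lines presenting HLA-DQ/peptide complexes; antibody tested at 5 microgram/mL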
T4 construct: whole, on cells; also called Ba/F3-HLA-DQ2.5/TPO; HLA-DQ2.5/TPO
Description: as §1

[4] = target: T5, HLA-DQ2.5/33mer gliadin peptide complex on Ba/F3 cells (human); assay: FACS, Ba/F3 cells; IC17=0%, DQN0139bb//IC17=100%
T5 construct: whole, on cells; also called Ba/F3-HLA-DQ2.5/33mer gliadin
Description: as §1

[5] = target: T6, HLA-DQ2.5/alpha 1 gliadin peptide complex on Ba/F3 cells (human); assay: FACS, Ba/F3 cells; IC17=0%, DQN0139bb//IC17=100%
T6 construct: whole, on cells; also called Ba/F3-HLA-DQ2.5/alpha 1 gliadin; HLA-DQ2.5/a1 gliadin
Description: as §1

[6] = target: T7, HLA-DQ2.5/alpha 2 gliadin peptide complex on Ba/F3 cells (human); assay: FACS, Ba/F3 cells; IC17=0%, DQN0139bb//IC17=100%
T7 construct: whole, on cells; also called Ba/F3-HLA-DQ2.5/alpha 2 gliadin; HLA-DQ2.5/a2 gliadin
Description: as §1

[7] = target: T8, HLA-DQ2.5/gamma 1 gliadin peptide complex on Ba/F3 cells (human); assay: FACS, Ba/F3 cells; IC17=0%, DQN0139bb//IC17=100%
T8 construct: whole, on cells; also called Ba/F3-HLA-DQ2.5/gamma 1 gliadin; HLA-DQ2.5/g1 gliadin
Description: as §1

[8] = target: T9, HLA-DQ2.5/gamma 2 gliadin peptide complex on Ba/F3 cells (human); assay: FACS, Ba/F3 cells; IC17=0%, DQN0139bb//IC17=100%
T9 construct: whole, on cells; also called Ba/F3-HLA-DQ2.5/gamma 2 gliadin; HLA-DQ2.5/g2 gliadin
Description: as §1

[9] = target: T10, HLA-DQ2.5/omega 1 gliadin peptide complex on Ba/F3 cells (human); assay: FACS, Ba/F3 cells; IC17=0%, DQN0139bb//IC17=100%
T10 construct: whole, on cells; also called Ba/F3-HLA-DQ2.5/omega 1 gliadin; HLA-DQ2.5/w1 gliadin
Description: as §1

[10] = target: T11, HLA-DQ2.5/omega 2 gliadin peptide complex on Ba/F3 cells (human); assay: FACS, Ba/F3 cells; IC17=0%, DQN0139bb//IC17=100%
T11 construct: whole, on cells; also called Ba/F3-HLA-DQ2.5/omega 2 gliadin; HLA-DQ2.5/w2 gliadin
Description: as §1

[11] = target: T12, HLA-DQ2.5/BC hordein peptide complex on Ba/F3 cells (human); assay: FACS, Ba/F3 cells; IC17=0%, DQN0139bb//IC17=100%
T12 construct: whole, on cells; also called Ba/F3-HLA-DQ2.5/BC hordein
Description: as §1

[12] = target: T13, HLA-DQ2.5/alpha 3 gliadin peptide complex on Ba/F3 cells (human); assay: FACS, Ba/F3 cells; IC17=0%, DQN0139bb//IC17=100%
T13 construct: whole, on cells; also called Ba/F3-HLA-DQ2.5/alpha 3 gliadin; HLA-DQ2.5/a3 gliadin
Description: as §1

[13] = target: T14, HLA-DQ2.5/alpha 1b gliadin peptide complex on Ba/F3 cells (human); assay: FACS, Ba/F3 cells; IC17=0%, DQN0139bb//IC17=100%
T14 construct: whole, on cells; also called Ba/F3-HLA-DQ2.5/alpha 1b gliadin; HLA-DQ2.5/a1b gliadin
Description: as §1

[14] = target: T15, HLA-DQ2.5/avenin 1 peptide complex on Ba/F3 cells (human); assay: FACS, Ba/F3 cells; IC17=0%, DQN0139bb//IC17=100%
T15 construct: whole, on cells; also called Ba/F3-HLA-DQ2.5/avenin 1
Description: as §1

[15] = target: T16, HLA-DQ2.5/avenin 2 peptide complex on Ba/F3 cells (human); assay: FACS, Ba/F3 cells; IC17=0%, DQN0139bb//IC17=100%
T16 construct: whole, on cells; also called Ba/F3-HLA-DQ2.5/avenin 2
Description: as §1

[16] = target: T17, HLA-DQ2.5/avenin 3 peptide complex on Ba/F3 cells (human); assay: FACS, Ba/F3 cells; IC17=0%, DQN0139bb//IC17=100%
T17 construct: whole, on cells; also called Ba/F3-HLA-DQ2.5/avenin 3
Description: as §1

[17] = target: T18, HLA-DQ2.5/hordein 1 peptide complex on Ba/F3 cells (human); assay: FACS, Ba/F3 cells; IC17=0%, DQN0139bb//IC17=100%
T18 construct: whole, on cells; also called Ba/F3-HLA-DQ2.5/hordein 1
Description: as §1

[18] = target: T19, HLA-DQ2.5/hordein 2 peptide complex on Ba/F3 cells (human); assay: FACS, Ba/F3 cells; IC17=0%, DQN0139bb//IC17=100%
T19 construct: whole, on cells; also called Ba/F3-HLA-DQ2.5/hordein 2
Description: as §1

[19] = target: T20, HLA-DQ2.5/secalin 1 peptide complex on Ba/F3 cells (human); assay: FACS, Ba/F3 cells; IC17=0%, DQN0139bb//IC17=100%
T20 construct: whole, on cells; also called Ba/F3-HLA-DQ2.5/secalin 1
Description: as §1

[20] = target: T21, HLA-DQ2.5/secalin 2 peptide complex on Ba/F3 cells (human); assay: FACS, Ba/F3 cells; IC17=0%, DQN0139bb//IC17=100%
T21 construct: whole, on cells; also called Ba/F3-HLA-DQ2.5/secalin 2
Description: as §1

[21] = target: T22, HLA-DQ2.5/14mer 1 peptide complex on Ba/F3 cells (human); assay: FACS, Ba/F3 cells; IC17=0%, DQN0139bb//IC17=100%
T22 construct: whole, on cells; also called Ba/F3-HLA-DQ2.5/14mer 1
Description: as §1

[22] = target: T23, HLA-DQ2.5/26mer gliadin peptide complex on Ba/F3 cells (human); assay: FACS, Ba/F3 cells; IC17=0%, DQN0139bb//IC17=100%
T23 construct: whole, on cells; also called Ba/F3-HLA-DQ2.5/26mer gliadin
Description: as §1

[23] = target: T24, HLA-DQ2.5 on HLA-DQ2.5-positive PBMC B cells (human, UniProt P01909 24-254; P01920 33-261); assay: FACS, PBMC B cells; IC17=0%, DQN0139bb//IC17=100%
T24 construct: whole, on cells; also called HLA-DQ2.5+ PBMC B cell
T24 MHC II alpha: not shown
T24 MHC II beta: not shown

T3 sequence (P04233 96-124, chain 2 of 2, other chains not shown): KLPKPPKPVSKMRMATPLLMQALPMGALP
T1 sequence (P01920 33-230 limits assumed, chain 2 of 4, other chains not shown): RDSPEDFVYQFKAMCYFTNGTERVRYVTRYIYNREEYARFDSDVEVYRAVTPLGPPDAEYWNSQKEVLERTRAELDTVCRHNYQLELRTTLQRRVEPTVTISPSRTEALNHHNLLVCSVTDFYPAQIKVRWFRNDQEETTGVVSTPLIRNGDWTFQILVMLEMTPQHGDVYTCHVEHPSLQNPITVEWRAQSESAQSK

B1: DQN0344xx//IC17 (bispecific antibody, human IgG1, kappa)
heavy 1: QSLEESGGGLVKPGGTLTLTCTASGFSFSSSYWMCWVRQAPGKGLEWVACVYGGSDTTYYASWTKGRFTISKGSSTTVALQVTSLTAADTATYFCARDPLNYYYYGELNLWGPGTLVTVSSASTKGPSVFPLAPSSKSTSGGTAALGCLVKDYFPEPVTVSWNSGALTSGVHTFPAVLQSSGLYSLSSVVTVPSSSLGTQTYICNVNHKPSNTKVDKRVEPKSCDKTHTCPPCPAPELRRGPSVFLFPPKPKDTLMISRTPEVTCVVVDVSHEDPEVKFNWYVDGVEVHNAKTKPREEQYNSTYRVVSVLTVLHQDWLNGKEYKCKVSNKALPAPIEKTISKAKGQPREPQVYTLPPSREEMTKNQVSLTCLVKGFYPSDIAVEWESNGQPENNYKTTPPYLDSDGSFFLYSKLTVDKSRWQQGNVFSCSVMHEALHNHYTQESLSLSP
light 1: AVVLTQTASPVSAAVGGTVTIRCQATENIYSGLAWYQQKPGQPPKVLIYYVSTLASGVPSRFKGSGSGTEYTLTISGVQCDDAATYYCQTYHDISNVTFGGGTKVEIKRTVAAPSVFIFPPSDEQLKSGTASVVCLLNNFYPREAKVQWKVDNALQSGNSQESVTEQDSKDCTYSLSSTLTLSKADYEKHKVYACEVTHQGLSSPVTKSFNRGEC
heavy 2: QVQLQQSGPQLVRPGASVKISCKASGYSFTSYWMHWVNQRPGQGLEWIGMIDPSYSETRLNQKFKDKATLTVDKSSSTAYMQLSSPTSEDSAVYYCALYGNYFDYWGQGTTLTVSSASTKGPSVFPLAPSSKSTSGGTAALGCLVKDYFPEPVTVSWNSGALTSGVHTFPAVLQSSGLYSLSSVVTVPSSSLGTQTYICNVNHKPSNTKVDKRVEPKSCDKTHTCPPCPAPELRRGPSVFLFPPKPKDTLMISRTPEVTCVVVDVSHEDPEVKFNWYVDGVEVHNAKTKPREEQYNSTYRVVSVLTVLHQDWLNGKEYKCKVSNKALPAPIEKTISKAKGQPREPQVYTLPPSRKEMTKNQVSLTCLVKGFYPSDIAVEWESNGQPENNYKTTPPYLDSDGSFFLYSKLTVDKSRWQQGNVFSCSVMHEALHNHYTQKSLSLSP
light 2: DIQMTQSSSSFSVSLGDRVTITCKASEDIYNRLAWYQQKPGNAPRLLISGATSLETGVPSRFSGSGSGKDYTLSITSLQTEDVATYYCQQYWSTPYTFGGGTKLEVKRTVAAPSVFIFPPSDEQLKSGTASVVCLLNNFYPREAKVQWKVDNALQSGNSQESVTEQDSKDSTYSLSSTLTLSKADYEKHKVYACEVTHQGLSSPVTKSFNRGEC
For B1, the “IC50 (read off the curve)” value [1] was ~0.2 microgram/mL, the “% MFI” value (HLA-DQ7.5 on Ba/F3 cells) was 0% and the “% MFI” value (HLA-DQ8 on Ba/F3 cells) was 0%. The “% MFI” value [2] was 0%, the “% MFI” value [3] was 0% and the “% MFI” value [4] was 99.1%. For the same binder, the “% MFI” value [5] was 60.1%, the “% MFI” value [6] was 90.4% and the “% MFI” value [7] was 0.2%. For the same binder, the “% MFI” value [8] was 0.2%, the “% MFI” value [9] was 37.5% and the “% MFI” value [10] was 0.2%. The “% MFI” value [11] was 0%, the “% MFI” value [12] was 14.6% and the “% MFI” value [13] was 72.2%. The “% MFI” value [14] was 20.7%, the “% MFI” value [15] was 16.8% and the “% MFI” value [16] was 17.8%. For the same binder, the “% MFI” value [17] was 11.9%, the “% MFI” value [18] was 0% and the “% MFI” value [19] was 31.6%. For the same binder, the “% MFI” value [20] was 26.5%, the “% MFI” value [21] was 0% and the “% MFI” value [22] was 0.2%. The “% MFI” value [23] was 0%.

— patent US20220153847A1 (Chugai, published 2022)
